B1: hRD: wild-type human P450 reductase, full length, control (protein, listed as Homo sapiens)
chain: MGDSHVDTSSTVSEAVAEEVSLFSMTDMILFSLIVGLLTYWFLFRKKKEEVPEFTKIQTLTSSVRESSFVEKMKKTGRNIIVFYGSQTGTAEEFANRLSKDAHRYGMRGMSADPEEYDLADLSSLPEIDNALVVFCMATYGEGDPTDNAQDFYDWLQETDVDLSGVKFAVFGLGNKTYEHFNAMGKYVDKRLEQLGAQRIFELGLGDDDGNLEEDFITWREQFWPAVCEHFGVEATGEESSIRQYELVVHTDIDAAKVYMGEMGRLKSYENQKPPFDAKNPFLAAVTTNRKLNQGTERHLMHLELDISDSKIRYESGDHVAVYPANDSALVNQLGKILGADLDVVMSLNNLDEESNKKHPFPCPTSYRTALTYYLDITNPPRTNVLYELAQYASEPSEQELLRKMASSSGEGKELYLSWVVEARRHILAILQDCPSLRPPIDHLCELLPRLQARYYSIASSSKVHPNSVHICAVVVEYETKAGRINKGVATNWLRAKEPAGENGGRALVPMFVRKSQFRLPFKATTPVIMVGPGTGVAPFIGFIQERAWLRQQGKEVGETLLYYGCRRSDEDYLYREELAQFHRDGALTQLNVAFSREQSHKVYVQHLLKQDREHLWKLIEGGAHIYVCGDARNMARDVQNTFYDIVAELGAMEHAQAVDYIKKLMTKGRYSLDVWS
B2: ΔN1hRD-M: human P450 reductase lacking N-terminal 24 amino acids, with C-terminal 12-amino acid c-myc tag; described in WO 2007/129050; gene SEQ ID NO: 5 (protein)
chain: MTDMILFSLIVGLLTYWFLFRKKKEEVPEFTKIQTLTSSVRESSFVEKMKKTGRNIIVFYGSQTGTAEEFANRLSKDAHRYGMRGMSADPEEYDLADLSSLPEIDNALVVFCMATYGEGDPTDNAQDFYDWLQETDVDLSGVKFAVFGLGNKTYEHFNAMGKYVDKRLEQLGAQRIFELGLGDDDGNLEEDFITWREQFWPAVCEHFGVEATGEESSIRQYELVVHTDIDAAKVYMGEMGRLKSYENQKPPFDAKNPFLAAVTTNRKLNQGTERHLMHLELDISDSKIRYESGDHVAVYPANDSALVNQLGKILGADLDVVMSLNNLDEESNKKHPFPCPTSYRTALTYYLDITNPPRTNVLYELAQYASEPSEQELLRKMASSSGEGKELYLSWVVEARRHILAILQDCPSLRPPIDHLCELLPRLQARYYSIASSSKVHPNSVHICAVVVEYETKAGRINKGVATNWLRAKEPAGENGGRALVPMFVRKSQFRLPFKATTPVIMVGPGTGVAPFIGFIQERAWLRQQGKEVGETLLYYGCRRSDEDYLYREELAQFHRDGALTQLNVAFSREQSHKVYVQHLLKQDREHLWKLIEGGAHIYVCGDARNMARDVQNTFYDIVAELGAMEHAQAVDYIKKLMTKGRYSLDVWSSSEQKLISEEDLNGSRL
modifications: delN1hRD-M
B3: ΔN2hRD-HDEL: human P450 reductase lacking the 54-amino acid membrane anchoring region, with C-terminal yeast ER retention signal HDEL (protein)
chain: MTKIQTLTSSVRESSFVEKMKKTGRNIIVFYGSQTGTAEEFANRLSKDAHRYGMRGMSADPEEYDLADLSSLPEIDNALVVFCMATYGEGDPTDNAQDFYDWLQETDVDLSGVKFAVFGLGNKTYEHFNAMGKYVDKRLEQLGAQRIFELGLGDDDGNLEEDFITWREQFWPAVCEHFGVEATGEESSIRQYELVVHTDIDAAKVYMGEMGRLKSYENQKPPFDAKNPFLAAVTTNRKLNQGTERHLMHLELDISDSKIRYESGDHVAVYPANDSALVNQLGKILGADLDVVMSLNNLDEESNKKHPFPCPTSYRTALTYYLDITNPPRTNVLYELAQYASEPSEQELLRKMASSSGEGKELYLSWVVEARRHILAILQDCPSLRPPIDHLCELLPRLQARYYSIASSSKVHPNSVHICAVVVEYETKAGRINKGVATNWLRAKEPAGENGGRALVPMFVRKSQFRLPFKATTPVIMVGPGTGVAPFIGFIQERAWLRQQGKEVGETLLYYGCRRSDEDYLYREELAQFHRDGALTQLNVAFSREQSHKVYVQHLLKQDREHLWKLIEGGAHIYVCGDARNMARDVQNTFYDIVAELGAMEHAQAVDYIKKLMTKGRYSLDVWSHDEL
modifications: delN2hRD-HDEL
notes: human P450 reductase lacking the 54-amino acid membrane anchoring region, with C-terminal yeast ER retention signal HDEL
B4: ΔN1hRD-HDEL: human P450 reductase lacking N-terminal 24 amino acids, with C-terminal yeast ER retention signal HDEL (protein)
chain: MTDMILFSLIVGLLTYWFLFRKKKEEVPEFTKIQTLTSSVRESSFVEKMKKTGRNIIVFYGSQTGTAEEFANRLSKDAHRYGMRGMSADPEEYDLADLSSLPEIDNALVVFCMATYGEGDPTDNAQDFYDWLQETDVDLSGVKFAVFGLGNKTYEHFNAMGKYVDKRLEQLGAQRIFELGLGDDDGNLEEDFITWREQFWPAVCEHFGVEATGEESSIRQYELVVHTDIDAAKVYMGEMGRLKSYENQKPPFDAKNPFLAAVTTNRKLNQGTERHLMHLELDISDSKIRYESGDHVAVYPANDSALVNQLGKILGADLDVVMSLNNLDEESNKKHPFPCPTSYRTALTYYLDITNPPRTNVLYELAQYASEPSEQELLRKMASSSGEGKELYLSWVVEARRHILAILQDCPSLRPPIDHLCELLPRLQARYYSIASSSKVHPNSVHICAVVVEYETKAGRINKGVATNWLRAKEPAGENGGRALVPMFVRKSQFRLPFKATTPVIMVGPGTGVAPFIGFIQERAWLRQQGKEVGETLLYYGCRRSDEDYLYREELAQFHRDGALTQLNVAFSREQSHKVYVQHLLKQDREHLWKLIEGGAHIYVCGDARNMARDVQNTFYDIVAELGAMEHAQAVDYIKKLMTKGRYSLDVWSHDEL
modifications: delN1hRD-HDEL
notes: human P450 reductase lacking N-terminal 24 amino acids, with C-terminal yeast ER retention signal HDEL

Experiments:
CYP2D6 = test: Amount of CYP2D6 in yeast microsomes by CO-difference spectra, co-expressed with P450 reductase variants; type: cell-based, human; settings: relative to hRD = 1; genes synthesized using yeast biased codons; yeast W303B, pSYE264
Description: The hRD variant genes, (ΔN1hRD-M, ΔN1hRD-HDEL, ΔN2hRD-HDEL), were integrated into Saccharomyces cerevisiae strain W303B (MAT a leu2 his3 trp1 can1-100 ade2 trp1 ura3) using standard yeast transformation procedures as detailed below. The integrating plasmids, bearing the ΔN1hRD-M, ΔN1hRD-HDEL, ΔN2hRD-HDEL genes, were first linearised with the restriction enzyme BstEII before introducing linearised DNA into yeast cells via homologous recombination. The resultant strains were named: • a) W303B-ΔN1hRD-M, • b) W303B-ΔN1hRD-HDEL, • c) W303B-ΔN2hRD-HDEL.
They were used for the transformation of the yeast episomal plasmids that bear the CYP2D6 and CYP1A2 genes: • 1. pSYE264 (bearing the human CYP2D6 gene), • 2. pSYE265 (bearing the human CYP1A2 gene).
A single colony from the strains W303B-ΔN1hRD-M, W303B-ΔN1hRD-HDEL, W303B-ΔN2hRD-HDEL were picked up from a minimal medium (SD) plate (supplemented with appropriate nutrients depending on the auxotrophic markers in the yeast strain) and inoculated into 10 ml of YPD medium (2% Bacto Peptone, 1% yeast extract, 2% glucose). The cells were grown overnight at 30° C. with 220 rpm shaking. 1.5 ml of overnight cultures were centrifuged at 13,000 rpm for a few seconds to collect the cell pellets. 0.5-2 μg of transforming DNA (i.e. the CYP bearing expression plasmids, pSYE264 and pSYE265) and 100 μg of single-stranded salmon sperm DNA were added to pellets and vortexed briefly. 500 μl of PEG solution (40% PEG 3350, 0.1M lithium acetate pH 7.5, 10 mM Tris-HCl pH 7.5, 1 mM EDTA pH7.5) and 5-10% DMSO were added to transformation mixes. All mixes were incubated in a Thermo-mixer for 15 min at 25° C. with shaking at 400 rpm, and then were heat shocked for 15 min at 42° C. After 10 min, 5-10% ethanol was added. The cells were pelleted at 8000 rpm for 1 min and were washed twice in 1×TE buffer and re-suspended in 250 μl-500 μl 1×TE pH7.5. The cells were plated out on SD agar medium and incubated at 30° C. for 2-3 days.
Recombinant yeast cells were grown in culture using the following protocol: • 1. […] On day two, once OD600 (i.e. OD measured at 600 nm) of the cultures reached 5 to 6 OD-s, the cultures were inoculated into 400 ml YPD medium (1% Bacto Peptone, 1% yeast extract, 2% glucose) with appropriate nutrients in 2-liter flask. […] On day three, after 16 hours, optical density was again measured at 600 nm after diluting the original culture 1:10. […] At the final step, supernatant was poured away and the dry pellet was frozen at −80° C. and the pellet weight was recorded. […]
The cell pellet that had been obtained from the earlier cell culture was weighed and the weight of cell pellet was recorded. […]

yeast cells = test: Dihydroethidium assay for ROS detection in yeast cells expressing a P450 reductase; type: cell-based, Saccharomyces cerevisiae; settings: gene synthesized using yeast-biased codons compared with ΔN1hRD-M gene isolated from human liver cDNA library; FIG. 13
Description: The reactive oxygen species generated in yeast cells due to expression of a P450 reductase were assessed using dihydroethidium fluorescence assay. Reactive oxygen species reacts with dihydroethidium to produce ethidium bromide which binds to the nuclear DNA and emits red fluorescence. Dihydroethidine is one of the best reagents available for measuring intracellular production of reactive oxygen species. After overnight induction of a P450 reductase, the cultures were analysed for induction of reactive oxygen species. The control (wt-hRD) and test (ΔN1hRD-M, ΔN1hRD-HDEL, ΔN2hRD-HDEL) yeast cultures were washed in sterile PBS and then incubated with dihydroethidium (5 μM final concentration) for 30 min. After washing with sterile PBS twice (to remove the extracellular dye), the samples were transferred into 96-well black plates with transparent bottom (COSTAR®). Fluorescence was measured using a BIO-TEK® plate reader. Excitation and emission wavelengths were 260 and 610 nm respectively. The percent induction in the formation of reactive oxygen species was calculated by comparing with cultures where genes were not induced.

CYP = CYP specific activity on co-expression of a CYP with the reductase; type: biochemical; settings: co-expressed with a CYP
Source text: The activity of cytochrome P450 may be measured by the EROD assay or by other assays known in the art. The expression of cytochrome P450 may be measured using CO-difference spectra as is known in the art and is described in the examples herein.

| Molecule | Relative Amounts of CYP2D6 Obtained (CYP2D6) | ROS produced (yeast cells) | CYP specific activities (CYP) |
| --- | --- | --- | --- |
| B1 | 1 |  |  |
| B2 | 3 ± 10% | far less ROS | higher CYP specific activities |
| B3 | 4.0 ± 10% |  |  |
| B4 | 3.8 ± 10% |  |  |

Source: patent publication US10030233B2, “Modified P450 reductase with N-terminal deletions and endoplasmic reticulum retention tag” (DE MONTFORT UNIVERSITY, priority 2013, dated 2018)
